Test results reported in US20250101120A1 (BEIJING SOLOBIO GENETECHNOLOGY, published 2025).
Like-named read-outs stand apart in the source and are kept apart here.

T1: hFc-hFasL (fusion protein of human Fc fragment and human FasL extracellular region) (human, UniProt P48023 134-281)
T1 sequence: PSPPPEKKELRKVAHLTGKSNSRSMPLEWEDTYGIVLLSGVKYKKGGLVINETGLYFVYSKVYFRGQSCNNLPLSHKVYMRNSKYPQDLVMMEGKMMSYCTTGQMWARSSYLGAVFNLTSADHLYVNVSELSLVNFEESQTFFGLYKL


Legend:
[1] = biological target: hFc-hFasL (fusion protein of human Fc fragment and human FasL extracellular region) (human) (UniProt P48023); assay: ELISA, hFc-hFasL coated, sample titrated (detection for this reference not separately stated)
[2] = biological target: hFc-hFasL (fusion protein of human Fc fragment and human FasL extracellular region) (human) (UniProt P48023); assay: cell-based or functional assay
[3] = biological target: T1, hFc-hFasL (fusion protein of human Fc …); assay: cell-based or functional assay
[4] = biological target: T1, hFc-hFasL (fusion protein of human Fc …); assay: cell-based or functional assay; remark: listed apart in the source
[5] = biological target: T1, hFc-hFasL (fusion protein of human Fc …); assay: cell-based or functional assay; remark: listed apart in the source
[6] = biological target: T1, hFc-hFasL (fusion protein of human Fc …); assay: ELISA, hFc-hFasL coated, sample titrated (detection for this reference not separately stated)
[7] = biological target: T1, hFc-hFasL (fusion protein of human Fc …); assay: ELISA, hFc-hFasL coated, antibody titrated, anti-human kappa-HRP (protocol of Example 3.2)
[8] = biological target: T1, hFc-hFasL (fusion protein of human Fc …); assay: cell-based or functional assay; remark: listed apart in the source
[9] = biological target: T1, hFc-hFasL (fusion protein of human Fc …); assay: cell-based or functional assay; remark: listed apart in the source
[10] = biological target: T1, hFc-hFasL (fusion protein of human Fc …); assay: cell-based or functional assay; remark: listed apart in the source
[11] = biological target: T1, hFc-hFasL (fusion protein of human Fc …); assay: ELISA, hFc-hFasL coated, antibody titrated, anti-human kappa-HRP

Molecule	EC50 [7] [nM]	HepG2 IC50(nM), FasL antigen-induced cell apoptosis [8] [nM]	Jurkat IC50(nM), FasL antigen-induced cell apoptosis [8] [nM]	EC50(nM), FasL antigen-induced NF-κB signaling pathway activation [9] [nM]	other results
MAB126-100 (commercial anti-FasL antibody, RD)					EC50 [1]: 0.948 nM; HepG2 IC50(nM), FasL antigen-induced cell apoptosis [2]: 0.074 nM; IC50(nM), FasL antigen-induced apoptosis of HepG2 cells (CellTiter-Glo ATP) [2]: 0.099 nM; Jurkat IC50(nM), FasL antigen-induced cell apoptosis [2]: 0.046 nM
APG101 (Fas fusion protein, Apogenix) (Fc fusion, UniProt P25445 26-172, looked up, also called Fas-Fc fusion protein APG101; FasL antagonist APG101; not shown: Fc part of APG101) QVTDINSKGLELRKTVTTVETQNLEGLHHDGQFCHKPCPPGERKARDCTVNGDEPDCVPCQEGKEYTDKAHFSSKCRRCRLCDEGHGLEVEINCTRTQNTKCRCKPNFFCNSTVCEHCDPCTKCEHGIIKECTLTSNTKCKEEGSRS					IC50(nM), FasL antigen-induced apoptosis of HepG2 cells (CellTiter-Glo ATP) [3]: 11.3 nM; IC50(nM), FasL antigen-induced apoptosis of Jurkat cells (CellTiter-Glo ATP) [4]: > 100 nM; EC50(nM), FasL antigen-induced NF-κB signaling pathway activation (SEAP, HepG2-Dual) [5]: 7.23 nM; EC50 [6]: 23.5 nM
humFL-M88-1 (antibody, human IgG4, V domains shown, Humanized FL-M88) VH: QVQLVQSGAEVKKPGASVKVSCKGSGYTFTDYTIHWVRQAPGQGLEWIGVISTYQGDASYNQKFKGRATMTVDKSTSTAYMELSSLRSEDTAVYYCARFPDWDYAMDYWGQGTLVTVSS VL: EIVMTQSPATLSVSPGERATLSCKASQSVDYDGDSYMNWYQQKPGQPPRLLIYAASNLESGIPARFSGSGSGTEFTLTISSLQSEDFAVYYCQHSRELPYTFGQGTKLEIK	0.265	0.0125	0.0193	0.454	
humFL-M88-3 (antibody, human IgG4, V domains shown, Humanized FL-M88) VH: QVQLVQSGAEVKKPGASVKVSCKGSGYTFTDYTIHWVRQAPGQGLEWMGVISTYQGDASYNQKFKGRATMTVDKSTSTAYMELSSLRSEDTAVYYCARFPDWDYAMDYWGQGTLVTVSS VL: EIVMTQSPATLSVSPGERATLSCKASQSVDYDGDSYMNWYQQKPGQPPRLLIYAASNLESGIPARFSGSGSGTEFTLTISSLQSEDFAVYYCQHSRELPYTFGQGTKLEIK	0.273	0.0276	0.0192	0.444	
humFL-M88-13 (antibody, human IgG4, V domains shown, Humanized FL-M88) VH: QVQLVQSGAEVKKPGASVKVSCKGSGYTFTDYTIHWVRQAPGQGLEWIGVISTYQGDASYNQKFKGRATMTVDKSTSTAYMELSSLRSEDTAVYYCARFPDWDYAMDYWGQGTLVTVSS VL: EIVMTQSPATLSVSPGERATLSCKASQSVDYDGDSYMNWYQQKPGQPPRLLIYAASNLESGIPARFSGSGSGTEFTLTISSLQSEDFAVYYCQQSRELPYTFGQGTKLEIK	0.302	0.0126	0.0243	0.698	
humFL-M88-15 (antibody, human IgG4, V domains shown, Humanized FL-M88) VH: QVQLVQSGAEVKKPGASVKVSCKGSGYTFTDYTIHWVRQAPGQGLEWMGVISTYQGDASYNQKFKGRATMTVDKSTSTAYMELSSLRSEDTAVYYCARFPDWDYAMDYWGQGTLVTVSS VL: EIVMTQSPATLSVSPGERATLSCKASQSVDYDGDSYMNWYQQKPGQPPRLLIYAASNLESGIPARFSGSGSGTEFTLTISSLQSEDFAVYYCQQSRELPYTFGQGTKLEIK	0.301	0.0143	0.0149	0.47	
FL-M54 (antibody, V domains shown, Chimeric full-length antibody, tested as human IgG4 / human kappa) VH: EVQLQQSGVELVKPGASVKLSCKASGYTFTRFDISWVRQRPEQGLEWIGWIFPGDGSSQYNENFKGKATLTTDKSSGTAYMQLNRLTSEDSAVYFCARSLISTAMFDHWGQGTTLTVSS VL: DIVMTQSPASLAVSLGQRATISCRASKSVSTSDFSYIHWYQQKPGQPPKLLIFLASHLESGVPARFSGSGSGTDFTLNIHPVEEEDAATYYCQHSRELPRTFGGGTKLEIK					IC50(nM), FasL antigen-induced apoptosis of HepG2 cells (CellTiter-Glo ATP) [3]: 0.018 nM; IC50(nM), FasL antigen-induced apoptosis of Jurkat cells (CellTiter-Glo ATP) [4]: 0.018 nM; HepG2 IC50(nM), FasL antigen-induced cell apoptosis [10]: 0.023 nM; Jurkat IC50(nM), FasL antigen-induced cell apoptosis [10]: 0.023 nM; EC50(nM), FasL antigen-induced NF-κB signaling pathway activation (SEAP, HepG2-Dual) [5]: 1.97 nM; EC50 [11]: 0.725 nM
